According to PMC8754651, “Three human RNA polymerases interact with TFIIH via a common RPB6 subunit” (Nucleic Acids Research, 2021):

B1: human TFIIH p62 PH domain (PH-D) (residues 1–108) (domain or fragment)
chain: MATSSEEVLLIVKKVRQKKQDGALYLMAERIAWAPEGKDRFTISHMYADIKCQKISPEGKAKIQLQLVLHAGDTTNFHFSNESTAVKERDAVKDLLQQLLPKFKRKAN
notes: p62 subunit of the general transcription/repair factor TFIIH, human, N-terminal pleckstrin homology (PH) domain, residues 1-108; Unlabeled, 15N-labeled or 13C/15N-labeled according to the experiment; Expressed from pET15b; a few vector residues may remain after thrombin cleavage (surmise); source: E. coli BL21 (DE3) Gold, purified (Ni-NTA, thrombin digestion, Superdex75)

What follows are binders tested against human RPB6 (residues 1–127), full-length (human, UniProt P61218 1-127) (assay: NMR structure; complex at 0.38 mM, 13C/15N-labeled RPB6 with unlabeled p62 PH-D at 1.0:2.0 (and 13C/15N-labeled p62 PH-D with unlabeled RPB6); 20 mM potassium phosphate (pH 6.8), 25 mM NaCl, 5 mM deuterated DTT, 25°C; intermolecular NOEs). Conditions: both partners purified.

Binder	binding result
B1	binds

The binders below were run against B1 (assay: ITC; 100∼300 μM RPB6/Rpb6 peptide in the syringe titrated into 10–30 μM p62 PH-D in the cell; 20 mM potassium phosphate (pH 6.8) with or without 25 mM NaCl, 20°C; VP-ITC). Conditions: both partners purified.

Binder	binding result
MSDNEDNFDGDDFDDVEEDEGLDD (peptide, UniProt P61218 1-24, looked up, RPB6, human, N-terminal tail (NTT), residues 1-24; also called NTT peptide derived from human RPB6) [human RPB6 (residues 1–24), NTT peptide]	binds
MSDNEDNADGDDFDDVEEDEGLDD (peptide, UniProt P61218 1-24, looked up, RPB6, human, N-terminal tail, residues 1-24, with F8A) [human RPB6 (residues 1–24) F8A]	binds
MSDNEDNFDGDDADDVEEDEGLDD (peptide, UniProt P61218 1-24, looked up, RPB6, human, N-terminal tail, residues 1-24, with F13A) [human RPB6 (residues 1–24) F13A]	binds
MSDNEDNFDGDDADDAEEDEGLDD (peptide, UniProt P61218 1-24, looked up, RPB6, human, N-terminal tail, residues 1-24, with F13A and V16A; also called F13A-V16A double mutation) [human RPB6 (residues 1–24) F13A-V16A]	binds
MADNEDNFDGDDFDDVEEDEGLDD (peptide, UniProt P61218 1-24, looked up, RPB6, human, N-terminal tail, residues 1-24, with Ser2 substituted to alanine; also called Ser2 alanine substitution) [human RPB6 (residues 1–24) S2A]	binds
MSDNEDNFDGDDFDDAEEDEGLDD (peptide, UniProt P61218 1-24, looked up, RPB6, human, N-terminal tail, residues 1-24, with V16A) [human RPB6 (residues 1–24) V16A]	binds
